Experimental data reported in the supplement of paper PMC10126150.
± gives the standard deviation of the averaged measurements.

Tested on: ATP
Test: switch fluorescence ratio, 500 uM ATP over buffer (Cy3 cluster intensity, sum of 5 cycles each) (fold (ratio)); higher = stronger signal-on switching upon ATP binding; sequences stand for … in TCGTCGGCAGCGTCAGATGTGTATAAGAGACAGTTTTTTTTTTTTTTTTTTTTTTTTT…TC
Conditions: aptamer strand: ATP DNA aptamer (quencher-CACCTGGGGGAGTATTGCGGAGGAAGG + anchor), 100 nM annealed; ATP concentration: 500 uM
Outline: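 Clusters carrying Cy3-labelled switching strands on a modified Illumina MiSeq flow-cell were annealed to 100 nM quencher-labelled ATP aptamer and imaged in selection buffer. They were imaged again after 15 min with 500 uM ATP at 22 °C, over five buffer/ATP cycles with NaOH stripping and re-annealing in between. For each cluster, the fluorescence ratio is the summed Cy3 intensity of the target cycles divided by that of the buffer cycles, averaged per switch-domain sequence. Clusters outside 100-1000 RFU were left out.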
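Note: ATP exposure 15 min at 22 °C before imaging.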

| Sequence | switch fluorescence ratio |
| --- | --- |
| TGGTACCTTT | 1.04 ± 0.012 |
| TCGGGGGATA | 0.98 ± 0.039 |
| TTGGGTATTG | 0.966 ± 0.034 |
| ATGCGATGGC | 1.02 ± 0.0072 |
| GGCAGGTTGG | 0.952 ± 0.014 |
| CAGTAAAAAG | 1.03 ± 0.025 |
| GCTTATGGGA | 1 ± 0.039 |
| TTAAACAAGG | 1.01 ± 0.012 |
| CGAATGTGGG | 1.0147 ± 0.00075 |
| CGGTCCCGGC | 1.03 ± 0.05 |
| AGGGGAAGCC | 1.02 ± 0.066 |
| GGTTGAGTCG | 0.989 ± 0.014 |
| TGGACGTGAT | 1.83 ± 1 |
| CGGTGTTGTC | 0.964 ± 0.0037 |
| CGGGTCGGGG | 0.998 ± 0.025 |
| GGCACTGGAT | 1.02 ± 0.02 |
| GTGACAGAGG | 1.02 ± 0.0015 |
| GATTCCTCAT | 1.015 ± 0.0095 |
| CATGATTAGT | 0.951 ± 0.041 |
| TGTCGTGACA | 1.006 ± 0.0038 |
| TGTCTTACCT | 1.147 ± 0.0093 |
| AATCGGGAGT | 1.013 ± 0.0094 |
| CGCTCGGTTA | 0.956 ± 0.031 |
| CGAGGGGTTT | 0.984 ± 0.059 |
| GTACTACCTA | 1.14 ± 0.022 |

| Sequence | switch fluorescence ratio |
| --- | --- |
| ACCGTTGTTC | 1.04 ± 0.02 |
| TGGTTTGATC | 1.01 ± 0.026 |
| TTGACAGGGT | 1.03 ± 0.07 |
| AAACCAGCCC | 1.21 ± 0.21 |
| GGCATTTTTT | 1 ± 0.031 |
| AAGTGTCGTG | 0.959 ± 0.024 |
| TGAAAAAGTT | 1.32 ± 0.47 |
| TATACTCCTG | 1.16 ± 0.041 |
| GGGTGTTCGG | 0.979 ± 0.017 |
| AATGAGTGGA | 1.008 ± 0.0063 |
| TTATGACAAC | 1.015 ± 0.0044 |
| ATTCGGAGGG | 0.984 ± 0.011 |
| AGGTCTATTG | 1.06 ± 0.09 |
| GGCGCCGCTG | 1.016 ± 0.003 |
| TATCTGAACG | 1.01 ± 0.037 |
| GGGTTTCATG | 0.995 ± 0.024 |
| TGGACAATGG | 1.03 ± 0.051 |
| TTTCATTATC | 1.02 ± 0.016 |
| CATAACATAG | 0.995 ± 0.012 |
| AATTGTAGGC | 0.976 ± 0.036 |
| TTGGGTTGTT | 0.986 ± 0.033 |
| CCCATGGACT | 1.034 ± 0.0088 |
| CCTTTGCCGC | 1.58 ± 0.54 |
| TCGGTCCTTT | 0.99 ± 0.029 |
| ATTGTTAATT | 1.013 ± 0.01 |

| Sequence | switch fluorescence ratio |
| --- | --- |
| TGAGTGGCTT | 0.967 ± 0.034 |
| GGGGCTGCGC | 1.05 ± 0.1 |
| TGGTTGATTG | 0.975 ± 0.047 |
| AATGTTTGTT | 0.971 ± 0.015 |
| ATTTGGGTTA | 1.01 ± 0.019 |
| GAAGTAACAG | 1.03 ± 0.027 |
| ACGACCTGCA | 1.51 ± 0.075 |
| CCGGGTTCGC | 0.998 ± 0.083 |
| CGCAGAAACG | 1 ± 0.036 |
| TCGCGCAGAA | 1.061 ± 0.0063 |
| TGAAATGCTA | 1.036 ± 0.0073 |
| GATGTTGTGA | 0.9999 ± 0.0076 |
| ATATGTGGGA | 1.02 ± 0.033 |
| TCGGGGCCGG | 0.964 ± 0.037 |
| AGTCCTTTGT | 1.02 ± 0.025 |
| GGGGGCTGAA | 0.985 ± 0.027 |
| AAAGGGGGCG | 0.99 ± 0.017 |
| CATGGGCTAG | 0.997 ± 0.057 |
| GGTGGGTGGT | 0.99 ± 0.036 |
| TTTGTCATGT | 0.976 ± 0.036 |
| TCACAATGCG | 1.06 ± 0.064 |
| CACATTGACC | 1.1119 ± 7.1e-05 |
| TATCAGTAGT | 1.016 ± 0.0028 |
| GATTGAGAAG | 0.996 ± 0.023 |
| TCGTAGGGGT | 0.995 ± 0.018 |

| Sequence | switch fluorescence ratio |
| --- | --- |
| TCGGAGGTCC | 0.958 ± 0.029 |
| GCACCAATT | 1.06 ± 0.072 |
| TGGATTTAAT | 1.01 ± 0.049 |
| GAGACGCTTA | 1.069 ± 0.0064 |
| GATGAAGTTG | 0.971 ± 0.029 |
| TAGGGGTTTG | 0.979 ± 0.027 |
| TGATCTTTCT | 1.01 ± 0.059 |
| TCTATTGGA | 0.9949 ± 0.0037 |
| GGGGGTTATT | 0.989 ± 0.051 |
| GGTTTGGTTT | 1 ± 0.021 |
| GGGCCCGGGA | 0.986 ± 0.018 |
| TTTCGCCCCT | 1.1 ± 0.062 |
| TATCAGGGG | 1.11 ± 0.054 |
| AGTTTTGAG | 0.9928 ± 0.0097 |
| CAGTCTTTTT | 1.03 ± 0.022 |
| GGGCTTAGAG | 1.012 ± 0.007 |
| ATATTGATTC | 1.01 ± 0.027 |
| TGGAGGGATT | 1.02 ± 0.013 |
| ATCGTTCGTG | 0.99714 ± 0.00096 |
| TTTTAATAGT | 1.01 ± 0.018 |
| ACGATGGTTG | 0.9729 ± 0.0095 |
| TTTGTTATGC | 1.03 ± 0.032 |
| CAGGAGACTA | 0.9979 ± 0.0094 |
| CGAAGTTTGG | 1.02 ± 0.02 |
| CCTTGAGGGG | 0.9925 ± 0.0036 |

| Sequence | switch fluorescence ratio |
| --- | --- |
| ACGTGCCGCA | 1.079 ± 0.0088 |
| GAGTTCTTG | 0.986 ± 0.023 |
| GTTACTGTGC | 1.08 ± 0.025 |
| TATGTATTAT | 0.994 ± 0.062 |
| GAATATATGT | 1.04 ± 0.028 |
| TATTTGGGGA | 0.999 ± 0.024 |
| ACTTTGGTTA | 1.04 ± 0.042 |
| GGTAACAGCT | 1.04 ± 0.051 |
| GGGTTTATGC | 0.9921 ± 0.0067 |
| AACAGGGGAG | 1.03 ± 0.03 |
| TGGGTGGGTC | 1.05 ± 0.069 |
| AGTTTCCTAG | 0.971 ± 0.022 |
| CGGTTAGGAA | 1.01 ± 0.025 |
| GAGCGGCTTC | 1.027 ± 0.0097 |
| TGTGAGTTGC | 0.949 ± 0.0069 |
| AGCGGGGGCT | 0.997 ± 0.045 |
| TGTTAGGGGG | 1.01 ± 0.014 |
| TGAGTTTCTG | 0.968 ± 0.014 |
| AAAATCGGTG | 1.01 ± 0.068 |
| TTTCCTGAGG | 0.991 ± 0.016 |
| TAGTAGAGGT | 1 ± 0.043 |
| TGGATAAGCG | 1 ± 0.032 |
| GAGTTGTCGA | 0.994 ± 0.022 |
| CTAGCAACGC | 1.08 ± 0.028 |
| TGATTTGGCT | 1.02 ± 0.031 |

| Sequence | switch fluorescence ratio |
| --- | --- |
| CTATGGCCGG | 0.969 ± 0.024 |
| CAGCTTGGGG | 1.019 ± 0.0089 |
| AATTTTATGG | 1.01 ± 0.022 |
| CAGGTCCAGT | 0.993 ± 0.02 |
| CAGCGGGACC | 1.03 ± 0.025 |
| GTGTATATCG | 0.991 ± 0.012 |
| CCGTCTAATA | 1.42 ± 0.49 |
| AGTGAGTAAC | 0.9811 ± 0.0061 |
| TTTATCTTGG | 1.02 ± 0.038 |
| GATATGCCTG | 1.01 ± 0.069 |
| TGGTATGTGT | 1.003 ± 0.0057 |
| TTTTATACGG | 0.9874 ± 0.0087 |
| CTTGTATCGT | 0.971 ± 0.015 |
| ATAGTGAGTA | 0.996 ± 0.018 |
| CAGGACTTGT | 0.969 ± 0.02 |
| AATCGGTGGG | 0.997 ± 0.03 |
| GTGTTAGGCG | 0.981 ± 0.018 |
| AGGGAATTGT | 1 ± 0.037 |
| TGCTAGGGTA | 0.985 ± 0.012 |
| TTAAGCTGGT | 0.985 ± 0.022 |
| TTGCTGGCGC | 1.036 ± 0.0055 |
| GTGTTGGCTT | 0.995 ± 0.033 |
| TACTTGAGTA | 1.0026 ± 0.00022 |
| GTCGTGTCTG | 1.004 ± 0.0065 |
| AAATTTGTTG | 0.992 ± 0.011 |

| Sequence | switch fluorescence ratio |
| --- | --- |
| GTCATCATGG | 0.986 ± 0.044 |
| CTGGGTTTTT | 0.992 ± 0.03 |
| TCCAGTCAAA | 1.01 ± 0.075 |
| GGGGGTCGC | 1 ± 0.065 |
| ACAGTCTCTG | 1.03 ± 0.018 |
| TGATGGCATT | 0.9893 ± 0.0071 |
| CATTTGGGTA | 1.01 ± 0.014 |
| TGATTTTTTA | 0.992 ± 0.025 |
| GAATCAAAAA | 1 ± 0.088 |
| CGGTTAAAGC | 0.94 ± 0.014 |
| TGGGACTGTA | 1.14 ± 0.073 |
| CAAGACAACT | 1.03 ± 0.033 |
| AAACTTAATA | 1.14 ± 0.16 |
| TTTGGTCAGA | 0.973 ± 0.049 |
| AGTTATGTTG | 0.995 ± 0.021 |
| TTAAAAGGAA | 1.004 ± 0.0034 |
| GTTTATTCGA | 0.989 ± 0.014 |
| GATGGTTTGA | 1.02 ± 0.021 |
| GGGACCGGTT | 0.99 ± 0.03 |
| AGGGTGGTTT | 0.997 ± 0.02 |
| AATTTTGAGG | 0.984 ± 0.034 |
| TTTGCCTGAC | 1.57 ± 0.37 |
| CCTGAAACCT | 1.51 ± 0.48 |
| ATCGTATGGA | 0.998 ± 0.013 |
| TATTATTTTG | 1 ± 0.049 |

| Sequence | switch fluorescence ratio |
| --- | --- |
| ACTTTCTTAC | 1.12 ± 0.017 |
| CAAGCGTCAC | 1.12 ± 0.019 |
| TAACTTCGTG | 1.01 ± 0.031 |
| GTTTTGAGAG | 0.9595 ± 0.0086 |
| ATAGCCGGAC | 1.081 ± 0.008 |
| TATGTTGGAT | 0.988 ± 0.012 |
| AAAGTTGGCT | 1.02 ± 0.046 |
| GCGGTTCAGT | 1.0109 ± 0.00081 |
| TCTGTGCCTT | 1.06 ± 0.069 |
| TTTGAGTTGG | 1 ± 0.02 |
| GCAATCGGGA | 1.2 ± 0.087 |
| TCAGTTGTAT | 0.979 ± 0.011 |
| AAAGGAAGAA | 1.013 ± 0.0073 |
| ACGGGATATA | 1.02 ± 0.058 |
| GAGGTGTGAC | 1.01 ± 0.039 |
| TGGCCGTCAT | 0.98 ± 0.032 |
| TAATCCGCGG | 1.14 ± 0.041 |
| ACCTTGGTTG | 0.9609 ± 0.0054 |
| CCGAGGTTTT | 1.33 ± 0.22 |
| TTCAAGGGGG | 1 ± 0.018 |
| GAGTAATGGG | 1.003 ± 0.0098 |
| GGGAGGTAAT | 1 ± 0.056 |
| AGTTAAGGGA | 0.991 ± 0.062 |
| ATCTGGCTCG | 0.988 ± 0.016 |
| TGCGTTTATT | 0.994 ± 0.015 |
